According to publication PMC4943706:

Target: Factor Xa
Assay: SPR; FXa immobilised by amine coupling on a CM5 chip (1455.7 RU); Lofaxin as analyte at 1.95-31.25 nM; Biacore T100, 25°C, HBS-P buffer (10 mM HEPES, 150 mM NaCl, 0.005% P20, pH 7.4); global fit to the 1:1 Langmuir model

Kd: 1.83 nM
Substance: recombinant Lofaxin (Lufaxin-like salivary protein of Bichromomyia olmeca) (natural protein)
